The nanobody polyreactivity screen of Harvey et al. (2022)

Assay: yeast display, Sf9 membrane polyspecificity reagent, FACS + sequencing; frameworks hold sequencing errors
How it was run: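 In a synthetic yeast display library (Saccharomyces cerevisiae BJ5465), nanobody expression was induced with galactose for 36–48 hours. FACS gates were set low and high (top ~1%) using anti-HA fluorescence for expression and streptavidin fluorescence for binding of the Sf9 membrane reagent. Each polyreactivity label is drawn from the gate of origin.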

Row | Sequence | polyreactivity (PSR sort gate)
1 | QVQLQESGGGLVQAGGSLRLSSAASGSISSRDAMGWYRQAPGKEREFVATIASGTTTYYADSVKGSFTISRDNAENTVYLQTNSLKPEDTAVYYCAAPTIQIYPFYYWGQGTQVTVSS | high polyreactivity
2 | QVLLVESGGGLVQAGGSLRLSCAASGSTFSQYAMGWNRQAPGKERELVAAIDSGSNTKYADSVKGRFTISRDHAKNTVYLQMNSLKPEDTAVYYCAADDSYRSIGGDYWGQGTQVTVSS | low polyreactivity
3 | QVQLVESGGGLVQAGRSLRLSCAASGTTFVIYDMGWSRQAPGKERDLVAGNSYSGGSTYYADSVKGRFTISRDNAKNTVYLQMNSLKPEDTAVYYCNAGVLVLLYAYLPSDLEYWGQGTQVTVSS | low polyreactivity
4 | QVQLVESGGGLVQAGGSLRLSCAASGFIIRGNVMGWYRQAPGKERELVAAISGRGGSTYYADSVKGRFTISRDNAKNTVYLQMNSLKPEDTAVYYCNAAGLYNSRLDYWGQGTQVTVSS | high polyreactivity
5 | QVQLVESGGGLVQAGVSLRLSCAASGRTFRGYAMGWYRQAPGKERELVAAISSGGSTYYADSVKWRFTISRDNSKNTVYLQMNSLKPEDTAVYYCARAVGNYRTLEFDYWGQGTHVTVSS | low polyreactivity
6 | QVQLVESGGGLVQAGGSLRLSCAASGSTFKWYAMGWYRQAPGKERELVATISSGGSTNYADSVKGRFTISRDNAKNTVYLQMNSLKPEDTAVYYCAAANFKWGQGTQVTVTS | low polyreactivity
7 | QVQLVESGGGLVQAGGSLRLSCAASGRIFLRYALGWYRQAPGKEREWVAVITWSGGSTNYADSVKGRFTISRDNAKNTVYLQMNSLKPEDTAVYYCAVDNTGRSWPYDYWGQGTQVTVSS | low polyreactivity
8 | QVQLVESGGGLVQAGGSLRLSCAASGSTFPVYAMGWYRQAPGKERELVARISSGSSTNYADSVKGRFTNSRDKAKNTVYLQMNSLKPEDTAVSYCAAQTPRFVWQKGPLDSEEYWGQGTQVTVSS | high polyreactivity
9 | QVQLVESGGGLVQAGGSLRLSCAASGSTITQYAMGWYRQAPGKEREFVAAINSRGDSTYYADSVKGRFTISRDNAKNTVYLQMNSLKPEDTAVYYCNADYQTDDDPYGYDYWGQGTQVTVSS | low polyreactivity
10 | QDHLVESGGGLVQAGGSLRLSCAASGITFVYYYMGWYRTAPGKERELVAAISSDGSTYYADSVKGRFTISRDNAKNTVYLQMNSLKPEDTAVYYCNAVAIVPYFYVVYDIFDYWGQVTQVTVSS | low polyreactivity
11 | QVQLVETGGGLVQAGGSLRLSCAASGIIFYGYAMGWYRQAPGKERELVAAITYSGGSTYYADSVKGRFTISRDNAKNTVYLQMNSLKPEDTAVYYCRYDIWVWWSGAYDYWGQGTQVTVSS | low polyreactivity
12 | QVQLVESGGGLVQAGGSLRLSCAASGFIFEYYAMGWYRQAPGKERELVAAISRGGRTNYADSVKGRFTISRDNAKNTVYLQMNSLKPEDTAVYYCARDYTFYRQVRKYGYWGQGTQVTVSS | high polyreactivity
13 | QVQLVESGGGLVQAGGSLRLSCAASGSIIPSYSMGWYRQAPGKERDLVATIGRGGTTNYADSVKGRFTISLDNAKNTVYLQMNSLKPEDTAVYYCYAERIWRYKYGYDYWGQGSQVTVSS | high polyreactivity
14 | QVQLVESGGGLFQAGGSLRVSCAASGRTFRVYVMGSYRQAPGKERELVAAIRASGGITYYADSVKGRFTLSRDTAKNTVYLQMNSLKPEDTAVYYCAARPRTRYDYWGQGTQVTVSS | high polyreactivity
15 | QVQLVESGGGFVQAGGSLRLSCAASGFTFGWYALGWYRQAPGKERELVAAMSFGGSRTYYADSVKGRFSISRDNAKNTVYLQLNILNPEDTAVYYCNVVVGSYSANARSHYWGQGTEVTVSS | high polyreactivity
16 | QVQLVESGVGLVQAGGSLRLSCAASGIIFSSYAMGWYRQAPGKERELVAAITWNGGRTYYADSVKGRFTISRDNAKNSVYLQMNSLKPEDTAVYYCAALQGRSSARQDSYGYWGQGTQVTVSS | high polyreactivity

Row | Sequence | polyreactivity (PSR sort gate)
17 | QVQLVASGGGLVQAGGSLRLRCAASGFIFRYNTMGWYRQAPGKEREMVAVINRGGSTYYADSVKGRFTISRDNAKNTVYLQLNSLKAEDTGVYDCNVAKFGRYYYWGQGTQVTVSS | high polyreactivity
18 | QVQLVESGGGLVQAGGSLRLSCDASGSTFTFNDMGWYRQAPGKERELVAAITSGGSTTYADSVKGRFTISRDNAKNTVYLQMNSLKPEDTAVYYCAADYVYFYFYGYDSWGQGTQVTVSS | low polyreactivity
19 | HVQLVESGRGLFQAGGSLRLSCAASGFIFQYYAMGWYRQAPGKERELVAAISFGGSTYYADSVKGRFTISRDNAKNTVYLQMNSLKPEDTAVYYCAGDYYSWYGYDYWGQCTQVTVSS | low polyreactivity
20 | QVQLVESGGGIVQAGGSLRLSCAASGGIFLGNAMVWYRQAPGKERELVAGITWSGGRTYYADSVKGRFTISRDNAKNTVYLQMNSLKPEDTAVYYCNKDTPGTRFYGIYSYDYWGQGTQVTVSS | low polyreactivity
21 | QVQLVESGGGLVQAGGSLRLSCAASGRIFTTYAMGWYRQEPGKERELVAAISQNGGSTYYADSVKGRFTISRDNAKNTVYLQMNTLKPEDTAVYYCAAADYYGIRDLYASDGTHYYSWGQGTQVTVSS | low polyreactivity
22 | QVQLVESAGGLVQAGGSLRLSCAASGSTFANYAMGWYRQAPGKERELVAGISWRGGRTYYADSVKGRFTISRDNAKNTVYLQMNSLKPEDTAVYYSAVVHQTFTGDYWGQGTQVTVSS | high polyreactivity
23 | QVQLVEAGGGLVLAGGSLRLSCAASGIIFVSYAMGWSRQAPGKERELVASISWSGGRTYYADSVKARFTISRDNAKNTVYLQMNSLKPEDTAVYFCAAAYRTRSGVRRYPWFNYWGQGTQVTVSS | high polyreactivity
24 | QVQLVESGGGLVQAGGSLRLSCAASGSIFYSYAMGWYRHAPGKERELVAAISWDASTYYADSVKGRFTISRDNAKNTVYLQMNSLKPEDTAVYYCNADIPYYFVYDAYDFWGQGTQVTVSS | low polyreactivity
25 | QVQLVESGGGLVQAGGSLRLSCAASGRTFGFNVMGCSRQAPGKERELVAAISWSGGSTYYADSVKGRFTISRDNAKNTVYLQLNSLKPEDTAVYYCNKRDDHRYGYWGQGTQVTVSS | low polyreactivity
26 | QVQHVESRGGLVQAGGSLRLSCAASGFTSDSNAMGWYRQAPGKERELVAAIDSGGGSTYYADSVKGRFTISRDNAKNTVYLQMISLKPEDTAVYYCNAEQTPFVASLRVGEYGYWGQGTQVTVSS | low polyreactivity
27 | QVQLQESGGGLVQAGGSLRLSCAASGTISDRAGMGWYRQAPAKNAIVATIDRGTNTNYADSVKGRFTISRVNAKNTVYLQMNSLKPEDTAVYNCAADGRYYIYLDYWGQGTQVTVSS | low polyreactivity
28 | QVQLVESGGGLVQAGGSLRLSCAASGIIFDCNSMGWYRQAPGKERELVAANTSSTDSTYYADSVKGRFTISRDNAKNTVYLQLNSLKPEDTAVYYCAAAYPSKTFDYWGQGTQVTESS | low polyreactivity
29 | QVQLVESGGGLVQAGGSLRLICAASGSIFSIYAMGWYRQAPGKERELVAAITWGGGSTYYADSVKGRFTISRDNAKNTVYLQINSLKPEDTAVYDCAAESLTWYGTYYYWGQGTQVTVSS | high polyreactivity
30 | QVQLVESCGGLVQAGGSLRLSCAASGRTFVTYAMGWYRQAPGKERELVAAISKRGSRTYYAYSVKGRFTISRDNAKNTVYLQMNSLKPEDTAVYYCNADPYRTSYDYWGQGTQVTVSS | high polyreactivity
31 | QVQLVESGGGLVQAGGSLRLSCAASGYIFRQNAMGWYRQAPGKERELVAAISRSDDNTFYADSVKGRFTISRDNAKNTVYLLMNSLKPEDTAVYYCAKYAVPWRYPRGYDYWGQGTQVTVSS | low polyreactivity
32 | QVQLVESGGGLVQAGGSLRLSCAASGFIFAQNAMGWSRQAPGTERELVAAITSSGVSTYYADSVKGRFTISRDNAKNTVYLQMNSLKPEDTAVYYCNRTPRYTIRYGYWGQGTQVTVSS | high polyreactivity
